Where two headings read alike, the source gives them in different places.
Experiments:
[1] = PET/CT quantification of 86Y-labeled variants in AR42J xenograft mice; type: in vivo; conditions: athymic nude, mouse, in vivo, iv, total radioactivity
Protocol: For studies involving three variants (DOTA -TATE, DOTA-MVK(ε)-TATE, and DOTA-β-Gal-TATE), AR42J cells (5 × 10^6 cells per mouse) were subcutaneously inoculated into the right shoulder of the mice. Tumors were allowed to grow for 3 weeks, reaching a volume of 100 –200 mm³ before being used in subsequent experiments. For biodistribution or PET imaging studies, mice bearing subcutaneous AR42J tumors were administered 1.4 – 1.8 MBq (1 μg) of 111In-labeled DOTA-TATE variants or 2.7 – 4.9 MBq (1 μg) of 86Y-labeled DOTA-TATE variants via […]
tail vein injection. […]
PET imaging to assess the uptake of three 86Y-labeled DOTA-TATE variants (2.7 – 4.9 MBq, 1 μg) in the kidney and tumor was performed at 1, 4, and 24 hours post-injection (n = 3 per cohort) in mice bearing AR42J tumors using the MRS*PET/CT 120 scanner (MR Solutions, Guildford, UK). PET/CT data acquisition was managed using Preclinical Scan software (version 4.2.4.0, MR Solutions). Mice were anesthetized with 2% isoflurane, and static PET sc ans were acquired over 10 min. CT scans were obtained for attenuation correction and anatomical co-registration.
PET data were reconstructed using three-dimensional ordered-subsets expectation maximization, and were subsequently normalized, decay - and dead-time–corrected prior to analysis. PET/CT images were analyzed using MIM software (version 7.2.7, MIM Software Inc., Beachwood, OH, USA), and the quantitative evaluation of the maximum standardized uptake (SUVmax) and the average standardized uptake values (SUVmean) in the kidney and tumor were also performed. […]

[2] = Ex vivo biodistribution of 86Y-labeled variants in AR42J tumor-bearing mice; conditions: athymic nude, mouse, iv, 1 ug, total radioactivity, mean; for tissue uptake at 1 h: 1 h post-injection; for tissue uptake at 4 h: 4 h post-injection; for tissue uptake at 24 h: 24 h post-injection
Protocol: To independently confirm these observations, ex vivo biodistribution studies were conducted using the same ^86Y-labeled compounds at matched timepoints (Fig. S16; Table S3). […]
For studies involving three variants (DOTA -TATE, DOTA-MVK(ε)-TATE, and DOTA-β-Gal-TATE), AR42J cells (5 × 10^6 cells per mouse) were subcutaneously inoculated into the right shoulder of the mice. Tumors were allowed to grow for 3 weeks, reaching a volume of 100 –200 mm³ before being used in subsequent experiments. For biodistribution or PET imaging studies, mice bearing subcutaneous AR42J tumors were administered 1.4 – 1.8 MBq (1 μg) of 111In-labeled DOTA-TATE variants or 2.7 – 4.9 MBq (1 μg) of 86Y-labeled DOTA-TATE variants via tail vein injection. Biodistribution studies with 111In-labeled DOTA -TATE variants were performed 1 hour post -injection (n = 3 per cohort), while studies with 86Y-labeled DOTA-TATE variants were conducted at 1, 4, and 24 hours post -injection (n = 3 per cohort). Mice were euthanized by CO2 asphyxiation, and 10 tissues, including tumors, were collected. All samples were weighed and counted on a gamma counter (2480 Wizard 3, Perkin Elmer Inc., Waltham, MA, USA). Results are presented as percentage of injected activity per gram (%IA/g) and mean values ± standard deviations. […]

[3] = blood, ex vivo, n = 3, read-out: Blood uptake
[4] = femur, ex vivo, n = 3, read-out: Femur uptake
[5] = heart, ex vivo, n = 3, read-out: Heart uptake
[6] = intestine, ex vivo, n = 3, read-out: Intestine uptake
[7] = ex vivo, n = 3, read-out: Tumor uptake
[8] = kidney, ex vivo, n = 3, read-out: Kidney uptake
[9] = liver, ex vivo, n = 3, read-out: Liver uptake
[10] = lung, ex vivo, n = 3, read-out: Lung uptake
[11] = muscle, ex vivo, n = 3, read-out: Muscle uptake
[12] = spleen, ex vivo, n = 3, read-out: Spleen uptake

`CSCC[C@H](NC(=O)CN1CCN(CC(=O)O)CCN(CC(=O)O)CCN(CC(=O)O)CC1)C(=O)N[C@H](C(=O)N[C@@H](CCCCNC(=O)CCCC(=O)N[C@H](Cc1ccccc1)C(=O)N[C@H]1CSSC[C@@H](C(=O)N[C@H](C(=O)O)[C@@H](C)O)NC(=O)[C@H]([C@@H](C)O)NC(=O)[C@H](CCCCN)NC(=O)[C@@H](Cc2c[nH]c3ccccc23)NC(=O)[C@H](Cc2ccc(O)cc2)NC1=O)C(=O)O)C(C)C` [^86Y-DOTA-MVK(ε)-TATE, metal not drawn] gave an SUV at 4 h ([1]; Kidney SUVmax) of 0.42 ± 0.07 SUV, an SUV at 24 h ([1]; Kidney SUVmax) of 0.21 ± 0.01 SUV and an SUV at 1 h ([1]; Tumor SUVmax) of 1.31 ± 0.06 SUV. The SUV at 4 h ([1]; Tumor SUVmax) was 1.06 ± 0.14 SUV, the SUV at 24 h ([1]; Tumor SUVmax) was 1.04 ± 0.13 SUV and the tissue uptake at 1 h ([2]; blood, i.v. 1 μg (2.7–4.9 MBq), ex vivo gamma counting, n = 3, read-out: Blood uptake) was 0.32 %ID/g. It also gave a tissue uptake at 4 h [2, 3] of 0.17 %ID/g, a tissue uptake at 24 h [2, 3] of 0.02 %ID/g and a tissue uptake at 1 h [2, 4] of 0.52 %ID/g. It also gave a tissue uptake at 4 h [2, 4] of 0.21 %ID/g, a tissue uptake at 24 h [2, 4] of 0.2 %ID/g and a tissue uptake at 1 h [2, 5] of 0.35 %ID/g. It also gave a tissue uptake at 4 h [2, 5] of 0.24 %ID/g, a tissue uptake at 24 h [2, 5] of 0.08 %ID/g and a tissue uptake at 1 h [2, 6] of 0.69 %ID/g. For the same molecule, the tissue uptake at 4 h [2, 6] was 0.46 %ID/g, the tissue uptake at 24 h [2, 6] was 0.05 %ID/g and the tissue uptake at 1 h [2, 7] was 5.02 %ID/g. The tissue uptake at 4 h [2, 7] was 5.08 %ID/g, the tissue uptake at 24 h [2, 7] was 4.53 %ID/g and the tissue uptake at 1 h [2, 8] was 4.12 %ID/g. The tissue uptake at 4 h [2, 8] was 3.78 %ID/g, the tissue uptake at 24 h [2, 8] was 1.66 %ID/g and the tissue uptake at 1 h [2, 9] was 0.17 %ID/g. For the same molecule, the tissue uptake at 4 h [2, 9] was 0.15 %ID/g, the tissue uptake at 24 h [2, 9] was 0.06 %ID/g and the tissue uptake at 1 h [2, 10] was 0.79 %ID/g. It also gave a tissue uptake at 4 h [2, 10] of 0.47 %ID/g, a tissue uptake at 24 h [2, 10] of 0.13 %ID/g and a tissue uptake at 1 h [2, 11] of 0.45 %ID/g. It also gave a tissue uptake at 4 h [2, 11] of 0.23 %ID/g, a tissue uptake at 24 h [2, 11] of 0.09 %ID/g and a tissue uptake at 1 h [2, 12] of 0.25 %ID/g. The tissue uptake at 4 h [2, 12] was 0.22 %ID/g and the tissue uptake at 24 h [2, 12] was 0.14 %ID/g.
